The target in test [1] is In trans activated C25A-cathepsin S (human). The experiment in a line: surface acoustic wave biosensor (sam5BLUE); C25A-cathepsin S coupled by EDC/NHS to a short-chain COOH sensor chip; untreated Bet v 1 injected at increasing concentrations (5 or 10 to 100 μM); 20 mM imidazole pH 6.7, 50 mM NaCl; apparent KD from kobs by linear regression.
Test [2] has the same target. The experiment in a line: surface acoustic wave biosensor (sam5BLUE); C25A-cathepsin S immobilized; heat-destabilized Bet v 1 (10 min at 60 °C, spin-filtered) injected, 1a at 10 to 100 μM, 1d at 2.5 to 40 μM; pH 6.7.

Two molecules from PMC4522599 can be followed below.

B1: Bet v 1a (Bet v 1.0101), major birch pollen allergen (natural protein)
chain: GVFNYETETTSVIPAARLFKAFILDGDNLFPKVAPQAISSVENIEGNGGPGTIKKISFPEGFPFKYVKDRVDEVDHTNFKYNYSVIEGGPIGDTLEKISNEIKIVATPDGGSILKISNKYHTKGDHEVKAEQVKASKEMGETLLRAVESYLLAHSDAYN
Turning to B1, the Kd in test [1] was 21.5 µM.

B2: Bet v 1d (Bet v 1.0401), hypoallergenic isoform of the major birch pollen allergen (natural protein)
chain: MGVFNYEIETTSVIPAARLFKAFILDGDNLVPKVAPQAISSVENIEGNGGPGTIKKINFPEGFPFKYVKDRVDEVDHTNFKYNYSVIEGGPVGDTLEKISNEIKIVATPDGGCVLKISNKYHTKGNHEVKAEQVKASKEMGETLLRAVESYLLAHSDAYN
B2: the fold reduction in affinity against untreated Bet v 1d in test [2] is 5 fold. In test [1], the Kd was 5.4 µM.
